The test addresses cGAS (cyclic GMP-AMP synthase) of the Serratia marcescens E2-CBASS operon, N-terminal 6×His-tag (Serratia marcescens). Briefly: in vitro covalent bonding assay.

Data on 1 substance can be found in article doi:10.1101/2022.05.25.493364.

“E2 of the Serratia marcescens E2-CBASS operon, N-terminal 6×His-tag (enzyme)” came in with a rate of isopeptide bond (+DTT) formation of 0.5 min⁻¹ and a rate of total bond (thioester+isopeptide, -DTT) formation of 0.63 min⁻¹.
